According to PMC10134273 (Cancer Medicine, 2023):
Values joined by “and” are separate entries in the source; they are usually repeats but may differ in a detail not shown here. Identical values can stand only once. Like-named read-outs stand apart in the source and are kept apart here.

Experimental: Secondary endpoints included PK parameters (e.g., maximum observed concentration [C max] and area under the concentration‐time curve [AUC]). Secondary endpoints included objective response rate (ORR), disease control rate (DCR), and duration of response (DOR) as assessed by investigator per RECIST v1.1. Tumor responses were assessed according to RECIST v1.1; computerized tomography scanning or magnetic resonance imaging was performed every 6 weeks in the first 48 weeks, and every 12 weeks thereafter. Secondary endpoints also included safety and tolerability (adverse events [AEs] as defined by the National Cancer Institute‐Common Terminology Criteria for Adverse Events CTCAE v5.0) and exploratory biomarkers (total bile acids, 7‐α‐hydroxy‐4‐cholesten‐3‐one [C4] and circulating FGF19). Safety follow‐up visit was performed within 30 days (±5 days) and 90 days (±7 days) after the last dose of the study treatment.
All patients who received at least one dose of the study treatment in the Phase 1 part of the study were included in the safety and efficacy analyses. Dose escalation and MTD assessment were primarily based on DLTs which occurred within the 28‐day observation period. Descriptive statistics were used for demographics, safety, and efficacy data. The number of patients who experienced DLTs (within and outside of the 28‐day DLT assessment period) was tabulated for each dose level. The sample size of patients required for dose escalation were determined based on the ‘3+3’ design and DLTs observed as the trial progressed.

[1] = EVER4010001 40 mg BID group (N=3)
[2] = EVER4010001 60 mg BID group (N=3)
[3] = EVER4010001 80 mg BID group (N=6)
[4] = EVER4010001 100 mg BID group (N=7)

pembrolizumab: humanized monoclonal immunoglobulin G4 kappa anti-PD-1 antibody [reference compound]
4 (21.1) n (%): pembrolizumab related TEAEs: Anemia (Any Grade, N=19) | pembrolizumab related TEAEs: Blood alkaline phosphatase increased (Any Grade, N=19) | pembrolizumab related TEAEs: Blood and lymphatic system disorders (Any Grade, N=19) | pembrolizumab related TEAEs: Blood bilirubin increased (Any Grade, N=19) | pembrolizumab related TEAEs: Proteinuria (Any Grade, N=19) | pembrolizumab related TEAEs: Renal and urinary disorder (Any Grade, N=19)
14 (73.7) n (%): pembrolizumab related TEAEs: Investigations (Any Grade, N=19)
0 n (%): Temporary interruption of pembrolizumab: Blood bilirubin increased [1] | Temporary interruption of pembrolizumab: Investigations [1] | TEAEs resulting in temporary interruption of pembrolizumab [2] | Temporary interruption of pembrolizumab: Blood bilirubin increased [2] | Temporary interruption of pembrolizumab: Endocrine disorders [2] | Temporary interruption of pembrolizumab: Investigations [2] | Temporary interruption of pembrolizumab: Thyroiditis [2] | Temporary interruption of pembrolizumab: Endocrine disorders [3] | Temporary interruption of pembrolizumab: Thyroiditis [3] | Temporary interruption of pembrolizumab: Blood bilirubin increased [4] | Temporary interruption of pembrolizumab: Endocrine disorders [4] | Temporary interruption of pembrolizumab: Thyroiditis [4] | pembrolizumab related TEAEs: Abdominal pain (Grade ≥3, N=19) | pembrolizumab related TEAEs: Anemia (Grade ≥3, N=19) | pembrolizumab related TEAEs: Blood alkaline phosphatase increased (Grade ≥3, N=19) | pembrolizumab related TEAEs: Blood and lymphatic system disorders (Grade ≥3, N=19) | pembrolizumab related TEAEs: Blood bilirubin increased (Grade ≥3, N=19) | pembrolizumab related TEAEs: Endocrine disorders (Grade ≥3, N=19) | pembrolizumab related TEAEs: Gamma-glutamyl transferase increased (Grade ≥3, N=19) | pembrolizumab related TEAEs: Hyperphosphatemia (Grade ≥3, N=19) | pembrolizumab related TEAEs: Hypoalbuminemia (Grade ≥3, N=19) | pembrolizumab related TEAEs: Hypothyroidism (Grade ≥3, N=19) | pembrolizumab related TEAEs: Metabolism and nutrition disorders (Grade ≥3, N=19) | pembrolizumab related TEAEs: Proteinuria (Grade ≥3, N=19) | pembrolizumab related TEAEs: Renal and urinary disorder (Grade ≥3, N=19) | pembrolizumab related TEAEs: Thyroiditis (Grade ≥3, N=19)
11 [57.9%] n (%) and 11 (57.9) n (%): pembrolizumab related TEAEs: Diarrhea (Any Grade, N=19)
3 [15.8%] n (%) and 3 (15.8) n (%): TEAEs resulting in temporary interruption of pembrolizumab (Total (N=19))
1 (16.7) n (%): TEAEs resulting in temporary interruption of pembrolizumab [3] | Temporary interruption of pembrolizumab: Blood bilirubin increased [3] | Temporary interruption of pembrolizumab: Investigations [3]
1 (5.3) n (%): pembrolizumab related TEAEs: Diarrhea (Grade ≥3, N=19) | pembrolizumab related TEAEs: Gastrointestinal disorders (Grade ≥3, N=19) | Temporary interruption of pembrolizumab: Endocrine disorders (Total (N=19))
2 (10.5) n (%): pembrolizumab related TEAEs: Abdominal pain (Any Grade, N=19) | pembrolizumab related TEAEs: Gamma-glutamyl transferase increased (Any Grade, N=19) | pembrolizumab related TEAEs: Thyroiditis (Any Grade, N=19) | pembrolizumab related TEAEs: Aspartate aminotransferase increase (Grade ≥3, N=19) | pembrolizumab related TEAEs: Investigations (Grade ≥3, N=19) | Temporary interruption of pembrolizumab: Investigations (Total (N=19))
10 [52.6%] n (%) and 10 (52.6) n (%): pembrolizumab related TEAEs: Aspartate aminotransferase increase (Any Grade, N=19)
18 (94.7%) n (%) and 18 (94.7) n (%): Any pembrolizumab related TEAEs (Any Grade, N=19)
1 (33.3) n (%): TEAEs resulting in temporary interruption of pembrolizumab [1] | Temporary interruption of pembrolizumab: Endocrine disorders [1] | Temporary interruption of pembrolizumab: Thyroiditis [1]
11 (57.9) n (%): pembrolizumab related TEAEs: Gastrointestinal disorders (Any Grade, N=19)
none: SAEs related to EVER4010001 or pembrolizumab (2 patients with SAEs (40 and 60 mg))
1 (14.3) n (%): TEAEs resulting in temporary interruption of pembrolizumab [4] | Temporary interruption of pembrolizumab: Investigations [4]
3 (15.8) n (%): pembrolizumab related TEAEs: Endocrine disorders (Any Grade, N=19) | pembrolizumab related TEAEs: Hyperphosphatemia (Any Grade, N=19) | pembrolizumab related TEAEs: Hypoalbuminemia (Any Grade, N=19) | pembrolizumab related TEAEs: Hypothyroidism (Any Grade, N=19)
6 (31.6) n (%): pembrolizumab related TEAEs: Metabolism and nutrition disorders (Any Grade, N=19)
1 (5.3%) n (%) and 1 (5.3) n (%): Temporary interruption of pembrolizumab: Blood bilirubin increased (Total (N=19)) | Temporary interruption of pembrolizumab: Thyroiditis (Total (N=19))
